# Measurements taken from the supplement of paper PMC11246515.
# ± gives the standard deviation of the averaged measurements.
# Assay: total protein half-life in vivo (active degradation + dilution); higher = more stable protein
# [1] = E. coli NCM3722 delta-clpP delta-lon delta-hslV, growth: N-lim chemostat, doubling time 6 h
# [2] = E. coli NCM3722 delta-clpP, growth: N-lim chemostat, doubling time 6 h
# [3] = E. coli NCM3722 delta-hslV, growth: N-lim chemostat, doubling time 6 h
# [4] = E. coli NCM3722 delta-lon, growth: N-lim chemostat, doubling time 6 h
# [5] = E. coli NCM3722 delta-smpB, growth: N-lim chemostat, doubling time 6 h
# [6] = wild type E. coli NCM3722, growth: C-lim chemostat, doubling time 3 h
# [7] = wild type E. coli NCM3722, growth: C-lim chemostat, doubling time 6 h
# [8] = wild type E. coli NCM3722, growth: C-lim chemostat, doubling time 12 h
# [9] = wild type E. coli NCM3722, growth: N-lim chemostat, doubling time 6 h
# [10] = wild type E. coli NCM3722, growth: N-lim chemostat, doubling time 12 h
# [11] = wild type E. coli NCM3722, growth: P-lim chemostat, doubling time 6 h
# [12] = wild type E. coli NCM3722, growth: P-lim chemostat, doubling time 12 h
sequence,measurement,setting,value
MQNSALKAWLDSSYLSGANQSWIEQLYEDFLTDPDSVDANWRSTFQQLPGTGVKPDQFHSQTREYFRRLAKDASRYSSTISDPDTNVKQVKVLQLINAYRFRGHQHANLDPLGLWQQDKVADLDPSFHDLTEADFQETFNVGSFASGKETMKLGELLEALKQTYCGPIGAEYMHITSTEEKRWIQQRIESGRATFNSEEKKRFLSELTAAEGLERYLGAKFPGAKRFSLEGGDALIPMLKEMIRHAGNSGTREVVLGMAHRGRLNVLVNVLGKKPQDLFDEFAGKHKEHLGTGDVKYHMGFSSDFQTDGGLVHLALAFNPSHLEIVSPVVIGSVRARLDRLDEPSSNKVLPITIHGDAAVTGQGVVQETLNMSKARGYEVGGTVRIVINNQVGFTTSNPLDARSTPYCTDIGKMVQAPIFHVNADDPEAVAFVTRLALDFRNTFKRDVFIDLVCYRRHGHNEADEPSATQPLMYQKIKKHPTPRKIYADKLEQEKVATLEDATEMVNLYRDALDAGDCVVAEWRPMNMHSFTWSPYLNHEWDEEYPNKVEMKRLQELAKRISTVPEAVEMQSRVAKIYGDRQAMAAGEKLFDWGGAENLAYATLVDEGIPVRLSGEDSGRGTFFHRHAVIHNQSNGSTYTPLQHIHNGQGAFRVWDSVLSEEAVLAFEYGYATAEPRTLTIWEAQFGDFANGAQVVIDQFISSGEQKWGRMCGLVMLLPHGYEGQGPEHSSARLERYLQLCAEQNMQVCVPSTPAQVYHMLRRQALRGMRRPLVVMSPKSLLRHPLAVSSLEELANGTFLPAIGEIDELDPKGVKRVVMCSGKVYYDLLEQRRKNNQHDVAIVRIEQLYPFPHKAMQEVLQQFAHVKDFVWCQEEPLNQGAWYCSQHHFREVIPFGASLRYAGRPASASPAVGYMSVHQKQQQDLVNDALNVE [P0AFG3],total protein half-life in vivo,[1],5.96 ± 0.15 h
same,total protein half-life in vivo,[2],6.43 ± 0.87 h
same,total protein half-life in vivo,[3],5.92 ± 0.14 h
same,total protein half-life in vivo,[4],5.36 ± 0.23 h
same,total protein half-life in vivo,[5],4.99 ± 0.18 h
same,total protein half-life in vivo,[6],2.51 ± 0.028 h
same,total protein half-life in vivo,[7],5.13 ± 0.19 h
same,total protein half-life in vivo,[8],8.677 ± 0.03 h
same,total protein half-life in vivo,[9],5.377 ± 0.027 h
same,total protein half-life in vivo,[10],10.1 ± 0.89 h
same,total protein half-life in vivo,[11],4.72 ± 0.17 h
same,total protein half-life in vivo,[12],9.32 ± 0.68 h
MQQQKPLEGAQLVIMTIALSLATFMQVLDSTIANVAIPTIAGNLGSSLSQGTWVITSFGVANAISIPLTGWLAKRVGEVKLFLWSTIAFAIASWACGVSSSLNMLIFFRVIQGIVAGPLIPLSQSLLLNNYPPAKRSIALALWSMTVIVAPICGPILGGYISDNYHWGWIFFINVPIGVAVVLMTLQTLRGRETRTERRRIDAVGLALLVIGIGSLQIMLDRGKELDWFSSQEIIILTVVAVVAICFLIVWELTDDNPIVDLSLFKSRNFTIGCLCISLAYMLYFGAIVLLPQLLQEVYGYTATWAGLASAPVGIIPVILSPIIGRFAHKLDMRRLVTFSFIMYAVCFYWRAYTFEPGMDFGASAWPQFIQGFAVACFFMPLTTITLSGLPPERLAAASSLSNFTRTLAGSIGTSITTTMWTNRESMHHAQLTESVNPFNPNAQAMYSQLEGLGMTQQQASGWIAQQITNQGLIISANEIFWMSAGIFLVLLGLVWFAKPPFGAGGGGGGAH [P0AEJ0],total protein half-life in vivo,[1],7.36 h
same,total protein half-life in vivo,[2],6.64 ± 0.3 h
same,total protein half-life in vivo,[3],6.52 ± 0.46 h
same,total protein half-life in vivo,[4],5.94 h
same,total protein half-life in vivo,[5],5.55 ± 0.64 h
same,total protein half-life in vivo,[6],3.78 h
same,total protein half-life in vivo,[8],> 16 h
same,total protein half-life in vivo,[11],5.89 h
same,total protein half-life in vivo,[12],10.4 ± 0.82 h
MQQRRPVRRALLSVSDKAGIVEFAQALSARGVELLSTGGTARLLAEKGLPVTEVSDYTGFPEMMDGRVKTLHPKVHGGILGRRGQDDAIMEEHQIQPIDMVVVNLYPFAQTVAREGCSLEDAVENIDIGGPTMVRSAAKNHKDVAIVVKSSDYDAIIKEMDDNEGSLTLATRFDLAIKAFEHTAAYDSMIANYFGSMVPAYHGESKEAAGRFPRTLNLNFIKKLDMRYGENSHQQAAFYIEENVKEASVATATQVQGKALSYNNIADTDAALECVKEFAEPACVIVKHANPCGVAIGNSILDAYDRAYKTDPTSAFGGIIAFNRELDAETAQAIISRQFVEVIIAPSASEEALKITAAKQNVRVLTCGQWGERVPGLDFKRVNGGLLVQDRDLGMVGAEELRVVTKRQPSEQELRDALFCWKVAKFVKSNAIVYAKNNMTIGIGAGQMSRVYSAKIAGIKAADEGLEVKGSSMASDAFFPFRDGIDAAAAAGVTCVIQPGGSIRDDEVIAAADEHGIAMLFTDMRHFRH,total protein half-life in vivo,[1],5.11 ± 0.42 h
same,total protein half-life in vivo,[2],4.51 ± 0.51 h
same,total protein half-life in vivo,[3],4.73 ± 0.56 h
same,total protein half-life in vivo,[4],4.99 ± 0.032 h
same,total protein half-life in vivo,[5],4.41 ± 0.28 h
same,total protein half-life in vivo,[6],3.19 ± 0.3 h
same,total protein half-life in vivo,[7],5.88 ± 0.38 h
same,total protein half-life in vivo,[8],9.3 ± 0.86 h
same,total protein half-life in vivo,[9],4.36 ± 0.22 h
same,total protein half-life in vivo,[10],6.9 ± 0.074 h
same,total protein half-life in vivo,[11],5.961 ± 0.037 h
same,total protein half-life in vivo,[12],11.9 ± 0.6 h
MQRARCYLIGETAVVLELEPPVTLASQKRIWRLAQRLVDMPNVVEAIPGMNNITVILRNPESLALDAIERLQRWWEESEALEPESRFIEIPVVYGGAGGPDLAVVAAHCGLSEKQVVELHSSVEYVVWFLGFQPGFPYLGSLPEQLHTPRRAEPRLLVPAGSVGIGGPQTGVYPLATPGGWQLIGHTSLSLFDPARDEPILLRPGDSVRFVPQKEGVC [P0AAV4],total protein half-life in vivo,[1],5.48 ± 0.23 h
same,total protein half-life in vivo,[2],5.44 ± 0.087 h
same,total protein half-life in vivo,[3],5.73 ± 0.79 h
same,total protein half-life in vivo,[4],7.2 ± 0.64 h
same,total protein half-life in vivo,[5],4.972 ± 0.042 h
same,total protein half-life in vivo,[6],3.51 ± 0.27 h
same,total protein half-life in vivo,[7],6.26 ± 0.1 h
same,total protein half-life in vivo,[8],11.3 ± 0.43 h
same,total protein half-life in vivo,[9],5.41 ± 0.97 h
same,total protein half-life in vivo,[10],11.3 ± 0.39 h
same,total protein half-life in vivo,[11],6.04 ± 0.51 h
MQRETVWLVEDEQGIADTLVYMLQQEGFAVEVFERGLPVLDKARKQVPDVMILDVGLPDISGFELCRQLLALHPALPVLFLTARSEEVDRLLGLEIGADDYVAKPFSPREVCARVRTLLRRVKKFSTPSPVIRIGHFELNEPAAQISWFDTPLALTRYEFLLLKTLLKSPGRVWSRQQLMDSVWEDAQDTYDRTVDTHIKTLRAKLRAINPDLSPINTHRGMGYSLRGL,total protein half-life in vivo,[1],5.69 ± 1.5 h
same,total protein half-life in vivo,[2],4.02 ± 0.41 h
same,total protein half-life in vivo,[3],3.55 h
same,total protein half-life in vivo,[4],4.49 ± 0.45 h
same,total protein half-life in vivo,[5],3.92 h
same,total protein half-life in vivo,[6],2.74 ± 0.18 h
same,total protein half-life in vivo,[7],4.86 ± 0.057 h
same,total protein half-life in vivo,[8],11.5 ± 3.6 h
same,total protein half-life in vivo,[9],3.99 h
same,total protein half-life in vivo,[10],6.73 ± 0.16 h
same,total protein half-life in vivo,[11],4.04 h
same,total protein half-life in vivo,[12],7.89 ± 0.58 h
